Experiment [1] deals with T1, GST-APXL-1 PDZ domain 1 (Homo sapiens (Human)), Q13796.
T1 chain: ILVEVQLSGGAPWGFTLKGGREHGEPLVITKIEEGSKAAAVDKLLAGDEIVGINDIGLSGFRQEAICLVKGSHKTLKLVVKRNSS
Briefly: G assay titration, PDZ 0.5 ug/ml.

Experiment [2] deals with T2, GST-KIAA1719 PDZ domain 6 (Homo sapiens (Human)), Q9C0E4.
T2 chain: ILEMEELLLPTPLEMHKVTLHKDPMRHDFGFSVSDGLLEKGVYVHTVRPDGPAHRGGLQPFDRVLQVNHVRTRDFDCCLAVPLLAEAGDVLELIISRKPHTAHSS
Description: G' assay. Further: key of the grades not given here.

For experiment [3], the target named is T3, GST-GRIP 1 PDZ domain 7 (Homo sapiens (Human)), Q9Y3R0.
T3 chain: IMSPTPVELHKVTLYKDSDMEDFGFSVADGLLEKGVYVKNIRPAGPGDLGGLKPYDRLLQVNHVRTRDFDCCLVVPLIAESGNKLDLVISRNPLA
Briefly: G' assay. Further: key of the grades not given here.

Experiment [4] deals with T4, GST-prIL16 PDZ domains 1, 2, Q14005.
T4 chain: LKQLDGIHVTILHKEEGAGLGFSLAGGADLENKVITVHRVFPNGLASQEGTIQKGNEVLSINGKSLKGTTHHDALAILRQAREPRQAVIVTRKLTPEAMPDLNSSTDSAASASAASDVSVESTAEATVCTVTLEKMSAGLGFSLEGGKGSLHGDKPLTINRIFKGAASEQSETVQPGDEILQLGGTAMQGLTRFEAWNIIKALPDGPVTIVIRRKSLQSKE
Description: G' assay. Further: key of the grades not given here.

Experiment [5] deals with T5, GST-AIPC PDZ domain 3 (Homo sapiens (Human)), O15018.
T5 chain: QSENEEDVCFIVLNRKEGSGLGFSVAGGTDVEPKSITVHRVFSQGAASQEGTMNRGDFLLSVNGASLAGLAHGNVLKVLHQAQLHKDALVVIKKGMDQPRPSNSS
Description: G' assay. Further: key of the grades not given here.

Experiment [6] addresses T6, GST-SYNTENIN PDZ domain 2 (Homo sapiens (Human)), O00560.
T6 chain: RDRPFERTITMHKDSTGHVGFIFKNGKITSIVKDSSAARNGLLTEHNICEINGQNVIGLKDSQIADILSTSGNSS
Description: G' assay. Further: key of the grades not given here.

For experiment [7], the target named is T7, GST-PDZK1 PDZ domain 3 (Homo sapiens (Human)), A8MUH7.
T7 chain: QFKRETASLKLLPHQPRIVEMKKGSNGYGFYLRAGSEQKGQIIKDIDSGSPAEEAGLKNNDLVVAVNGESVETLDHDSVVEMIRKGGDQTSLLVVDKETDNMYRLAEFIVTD
Briefly: G' assay. Further: key of the grades not given here.

Experiment [8] has as its target T8, GST-AIPC PDZ domain 4 (Homo sapiens (Human)), O15018.
T8 chain: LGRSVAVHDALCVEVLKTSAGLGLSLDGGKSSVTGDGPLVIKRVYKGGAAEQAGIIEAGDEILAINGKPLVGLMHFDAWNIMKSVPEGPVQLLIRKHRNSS
Briefly: G' assay.

For experiment [9], the target named is T9, GST-TIP1 PDZ domain 1 (Table 9 insert) (Homo sapiens (Human)), O14907.
T9 chain: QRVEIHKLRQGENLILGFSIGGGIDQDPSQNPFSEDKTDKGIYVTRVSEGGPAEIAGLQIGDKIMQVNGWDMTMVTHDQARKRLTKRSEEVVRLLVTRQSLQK
Briefly: G assay titration, PDZ 0.5 ug/ml.

The target in experiment [10] is T10, GST-ENIGMA PDZ domain 1 (Homo sapiens (Human)), Q9NR12.
T10 chain: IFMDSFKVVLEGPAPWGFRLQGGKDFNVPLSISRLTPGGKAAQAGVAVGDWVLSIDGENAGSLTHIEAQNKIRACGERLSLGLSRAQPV
Briefly: G' assay.

Experiment [11] concerns the target T11, GST-LIM Protein PDZ domain 1 (Homo sapiens (Human)), Q96HC4.
T11 chain: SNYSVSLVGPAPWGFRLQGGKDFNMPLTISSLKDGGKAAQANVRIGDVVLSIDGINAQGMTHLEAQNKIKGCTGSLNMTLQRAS
Briefly: G' assay.

The target of experiment [12] is GST-DLG1 PDZ domain 1 (Homo sapiens), Q12959. Description: G assay titration, PDZ 0.5 ug/ml.
Experiment [13] concerns the target GST-Atrophin-1 Interacting Protein PDZ domain 1 (Rattus norvegicus (Rat)), O88382. Description: G assay titration, PDZ 0.5 ug/ml.
Experiment [14] concerns the target T12, GST-DLG2 PDZ domain 2 (Homo sapiens (Human)), Q15700.
T12 chain: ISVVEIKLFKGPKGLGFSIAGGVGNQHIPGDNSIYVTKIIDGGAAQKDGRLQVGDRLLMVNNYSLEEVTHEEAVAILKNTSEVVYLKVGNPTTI
Briefly: G assay titration, PDZ 0.5 ug/ml.

Experiment [15] has as its target GST-BAI-1 Associated Protein PDZ domain 3 (Homo sapiens (Human)), Q96QZ7. Briefly: G assay titration, PDZ 0.5 ug/ml.
Experiment [16] has as its target T13, GST-TIP-1 (Example 3) (human), O14907.
T13 chain: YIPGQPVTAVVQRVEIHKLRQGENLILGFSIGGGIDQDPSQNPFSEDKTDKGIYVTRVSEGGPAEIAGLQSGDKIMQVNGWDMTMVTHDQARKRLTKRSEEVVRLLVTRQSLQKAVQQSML
Description: G assay titration, PDZ 0.1 ug/ml.

The target of experiment [17] is GST-DLG1 PDZ domains 1, 2 (Homo sapiens), Q12959. Briefly: G assay titration, PDZ 0.1 ug/ml.
Experiment [18] has as its target T14, GST-KIAA0751(L) PDZ domain 1 (Mus musculus (Mouse)), Q9EQZ7.
T14 chain: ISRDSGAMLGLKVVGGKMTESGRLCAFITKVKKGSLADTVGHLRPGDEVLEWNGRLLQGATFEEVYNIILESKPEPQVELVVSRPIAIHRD
Briefly: G' assay.

The target of experiment [19] is T15, GST-FLJ21687 PDZ domain 1 (Homo sapiens (Human)), Q9H6Y5.
T15 chain: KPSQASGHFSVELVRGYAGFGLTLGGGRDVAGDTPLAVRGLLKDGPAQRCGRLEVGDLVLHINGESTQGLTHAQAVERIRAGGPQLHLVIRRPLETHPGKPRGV
Briefly: G' assay.

Where “and” joins values, the source holds several entries; their conditions need not be identical. Equal values may be shown once.

Chain of GST-Atrophin-1 Interacting Protein PDZ domain 1 (Rattus norvegicus (Rat)), O88382 (O88382 408-511): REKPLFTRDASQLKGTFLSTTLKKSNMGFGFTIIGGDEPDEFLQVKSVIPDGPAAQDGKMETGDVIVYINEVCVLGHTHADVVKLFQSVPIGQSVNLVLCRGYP
Chain of GST-BAI-1 Associated Protein PDZ domain 3 (Homo sapiens (Human)), Q96QZ7 (Q96QZ7 other isoform, or with tags, fused parts or gaps): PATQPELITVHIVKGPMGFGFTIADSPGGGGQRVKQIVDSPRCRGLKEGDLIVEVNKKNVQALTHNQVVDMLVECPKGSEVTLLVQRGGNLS

B1: KIA 1481 (peptide)
peptide: PIPAGGCTFSGIFPTLTSPL
modifications: not checked
On to B1, for which the dissociation constant Kd (as a rule, the concentration at which binding is half-saturated) in [1] came to 600 nM.

B2: CSPG4 (chondroitin sulfae proteoglycan 4, melanoma-associated) (peptide)
peptide: ELLQFCRTPNPALKNGQYWV
modifications: not checked
Regarding B2, the Classification in experiment [2] and in [3] was 5 A450 class in each case.

B3: ephrin B2 (peptide)
peptide: ILNSIQVMRAQMNQIQSVEV
modifications: not checked
As to B3, the Classification amounted to 2 A450 class in experiment [4]; 1 A450 class in experiment [5]; 2 A450 class in experiment [6]; 1 A450 class in [7]; 1 A450 class in experiment [8].

B4: a-actinin 2 (peptide)
peptide: VPGALDYAAFSSALYGESDL
modifications: not checked
In turn, B4 yielded a dissociation constant Kd in experiment [9] of 1000 nM. For the same molecule, the Classification in experiment [10] is 5 A450 class; in [11], 4 A450 class.

B5: AdenoE4 typ9 (peptide)
peptide: VGTLLLERVIFPSVKIATLV
modifications: not checked
Turning to B5, the Kd was determined as 100 nM in experiment [12], 20 nM in experiment [13], 50 nM in [14] and 75 nM in experiment [15].

B6: TAX (peptide)
peptide: QISPGGLEPPSEKHFRETEV
modifications: not checked
B6: in experiment [16], the Kd is 5 nM and 6 nM; the maximum OD (450 nm) was 3.3 OD and 2.1 OD. For the same molecule, in [17], the equilibrium dissociation constant (Kd) was 200 nM and 130 nM; the maximum OD (450 nm) is 1.6 OD and 3.4 OD.

B7: alpha-2A Adrenergic receptor (peptide)
peptide: HDFRRAFKKILARGDRKRIV
modifications: not checked
On to B7, for which the figures for the Classification in [18] and in [19] were 3 A450 class and 1 A450 class, respectively.

The record behind these values is patent publication US20050282743A1, “Molecular interactions in cells” (Arbor Vita Corporation, priority 2001, published 2005).
